Results: publication PMC12170185, “Dynamic RNA binding and unfolding by nonsense-mediated mRNA decay factor UPF2” (RNA, 2024)

Legend:
[1] = molecular target: T1, UPF2L (near full-length UPF2, residues 121-1227) (UniProt Q9HAU5 121-1227); experiment: native gel or EMSA; 250 nM HEX-labelled hp-RNA mixed with the proteins, 1 h on ice; native 4%-20% Tris-glycine gel, 45 min at 150 V, 4°C; HEX label of the RNA detected; RNA diluted in 25 mM HEPES pH 7.45, 100 mM NaCl, 5% glycerol; conditions: both partners purified
T1 construct: Construct from Neu-Yilik et al. 2017; also called up-frameshift protein 2; source: E. coli BL21 Rosetta (DE3), purified (Ni-NTA, heparin, SEC)
T1 sequence (looked up): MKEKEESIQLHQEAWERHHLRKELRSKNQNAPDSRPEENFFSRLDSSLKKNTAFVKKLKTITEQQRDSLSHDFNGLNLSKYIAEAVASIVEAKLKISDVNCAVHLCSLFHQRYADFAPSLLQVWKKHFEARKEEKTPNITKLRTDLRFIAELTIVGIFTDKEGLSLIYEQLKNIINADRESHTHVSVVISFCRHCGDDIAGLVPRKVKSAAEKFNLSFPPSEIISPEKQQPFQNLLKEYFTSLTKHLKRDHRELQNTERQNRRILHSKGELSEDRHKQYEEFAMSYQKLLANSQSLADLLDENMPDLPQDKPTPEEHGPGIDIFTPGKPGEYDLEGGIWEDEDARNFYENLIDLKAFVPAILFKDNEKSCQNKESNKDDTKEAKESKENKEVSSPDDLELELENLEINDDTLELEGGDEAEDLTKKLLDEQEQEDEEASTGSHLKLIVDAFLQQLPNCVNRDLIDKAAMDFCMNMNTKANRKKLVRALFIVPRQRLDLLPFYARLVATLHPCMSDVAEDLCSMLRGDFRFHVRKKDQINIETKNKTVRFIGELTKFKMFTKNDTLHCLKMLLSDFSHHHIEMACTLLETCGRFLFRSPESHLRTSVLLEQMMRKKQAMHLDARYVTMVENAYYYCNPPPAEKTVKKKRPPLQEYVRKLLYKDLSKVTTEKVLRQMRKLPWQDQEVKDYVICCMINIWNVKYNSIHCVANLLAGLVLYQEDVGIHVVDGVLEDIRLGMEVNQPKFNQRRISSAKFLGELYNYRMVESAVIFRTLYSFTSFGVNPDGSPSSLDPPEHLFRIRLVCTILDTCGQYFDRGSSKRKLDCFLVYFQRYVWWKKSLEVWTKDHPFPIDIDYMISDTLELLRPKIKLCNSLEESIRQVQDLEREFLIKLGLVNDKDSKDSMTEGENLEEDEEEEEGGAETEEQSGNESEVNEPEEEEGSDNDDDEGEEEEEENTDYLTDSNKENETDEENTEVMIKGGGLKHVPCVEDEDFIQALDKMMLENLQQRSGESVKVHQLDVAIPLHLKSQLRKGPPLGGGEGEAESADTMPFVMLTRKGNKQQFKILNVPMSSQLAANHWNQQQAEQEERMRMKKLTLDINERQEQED

[2] = molecular target: T2, UPF2 MIF4G domain-3 (residues 761-1054) (UniProt Q9HAU5 761-1054); experiment: as above; conditions: both partners purified
T2 construct: UPF2, third MIF4G domain, residues 761-1054; Construct from Kadlec et al. 2004; TEV site and His6 tag as said for m1; also called MIF4G-D3; D3; source: E. coli BL21 Rosetta (DE3), purified (Ni-NTA, heparin, SEC)
T2 sequence (looked up): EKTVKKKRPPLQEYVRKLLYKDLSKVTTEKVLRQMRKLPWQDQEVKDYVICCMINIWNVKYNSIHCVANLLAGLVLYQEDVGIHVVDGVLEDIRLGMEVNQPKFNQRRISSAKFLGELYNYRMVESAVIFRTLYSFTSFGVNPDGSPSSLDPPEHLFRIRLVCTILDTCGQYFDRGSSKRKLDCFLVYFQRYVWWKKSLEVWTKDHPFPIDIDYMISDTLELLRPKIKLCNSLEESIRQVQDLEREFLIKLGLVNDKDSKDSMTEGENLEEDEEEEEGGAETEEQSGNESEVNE

B1: UPF3B (residues 41-262) (domain or fragment, UniProt Q9BZI7 41-262, looked up)
chain: DRNKEKKEALSKVVIRRLPPTLTKEQLQEHLQPMPEHDYFEFFSNDTSLYPHMYARAYINFKNQEDIILFRDRFDGYVFLDNKGQEYPAIVEFAPFQKAAKKKTKKRDTKVGTIDDDPEYRKFLESYATDNEKMTSTPETLLEEIEAKNRELIAKKTTPLLSFLKNKQRMREEKREERRRREIERKRQREEERRKWKEEEKRKRKDIEKLKKIDRIPERDKL
notes: UPF3B residues 41-262: RNA-recognition motif, NOPS-Like domain and the first coiled coil-like domain; source: E. coli, purified as described (Bufton et al. 2022)
[1]
  binding result: binds
[2]
  binding result: binds
